# Results from the supplement of paper PMC10567573.
# B1: KLHL20 (parent)
# chain: YQDMIYAVGGRDDTTELSSAERYN
# Variants of: B1
# Assay: protein stability index of a GFP-peptide fusion (GPS, HEK-293T) (PSI 1-6); higher = more stable
# Settings: c terminus: a fixed tail appended
# 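Further: lentivirally expressed fusions sorted by FACS into six bins by GFP to DsRed ratio, PSI derived from sequencing read proportions per bin multiplied by bin number.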
row,Variant,protein stability index
1,YQDYIYAVGGRDDTTELSSAERYN,2.77
2,YQDAIYAVGGRDDTTELSSAERYN,2.51
3,YQDFIYAVGGRDDTTELSSAERYN,1.84
4,YQDWIYAVGGRDDTTELSSAERYN,2.85
5,YQDIIYAVGGRDDTTELSSAERYN,2.4
6,YQDRIYAVGGRDDTTELSSAERYN,2.75
7,YQDCIYAVGGRDDTTELSSAERYN,2.68
8,YQDSIYAVGGRDDTTELSSAERYN,3.27
9,YQDGIYAVGGRDDTTELSSAERYN,2.48
10,YQDEIYAVGGRDDTTELSSAERYN,3.68
11,YQDLIYAVGGRDDTTELSSAERYN,2.31
12,YQDQIYAVGGRDDTTELSSAERYN,2.66
13,YQDKIYAVGGRDDTTELSSAERYN,2.65
14,YQDTIYAVGGRDDTTELSSAERYN,3.15
15,YQDDIYAVGGRDDTTELSSAERYN,3.48
16,YQDNIYAVGGRDDTTELSSAERYN,3.12
17,YQDPIYAVGGRDDTTELSSAERYN,2.6
18,YQDHIYAVGGRDDTTELSSAERYN,2.55
19,YQDVIYAVGGRDDTTELSSAERYN,3.02
20,YVDMIYAVGGRDDTTELSSAERYN,1.96
21,YYDMIYAVGGRDDTTELSSAERYN,3.17
22,YGDMIYAVGGRDDTTELSSAERYN,3.28
23,YEDMIYAVGGRDDTTELSSAERYN,5.02
24,YMDMIYAVGGRDDTTELSSAERYN,3.03

row,Variant,protein stability index
1,YNDMIYAVGGRDDTTELSSAERYN,4.27
2,YWDMIYAVGGRDDTTELSSAERYN,2.87
3,YPDMIYAVGGRDDTTELSSAERYN,3.58
4,YIDMIYAVGGRDDTTELSSAERYN,1.58
5,YLDMIYAVGGRDDTTELSSAERYN,2.85
6,YSDMIYAVGGRDDTTELSSAERYN,3.61
7,YCDMIYAVGGRDDTTELSSAERYN,2.02
8,YHDMIYAVGGRDDTTELSSAERYN,2.83
9,YKDMIYAVGGRDDTTELSSAERYN,4.2
10,YDDMIYAVGGRDDTTELSSAERYN,4.86
11,YADMIYAVGGRDDTTELSSAERYN,2.3
12,YTDMIYAVGGRDDTTELSSAERYN,2.22
13,YRDMIYAVGGRDDTTELSSAERYN,3.6
14,YFDMIYAVGGRDDTTELSSAERYN,2.79
15,RQDMIYAVGGRDDTTELSSAERYN,4.89
16,WQDMIYAVGGRDDTTELSSAERYN,2.85
17,PQDMIYAVGGRDDTTELSSAERYN,4.57
18,IQDMIYAVGGRDDTTELSSAERYN,4.05
19,NQDMIYAVGGRDDTTELSSAERYN,4.96
20,GQDMIYAVGGRDDTTELSSAERYN,4.66
21,EQDMIYAVGGRDDTTELSSAERYN,5.08
22,MQDMIYAVGGRDDTTELSSAERYN,4.1
23,HQDMIYAVGGRDDTTELSSAERYN,4.5
24,SQDMIYAVGGRDDTTELSSAERYN,4.89

row,Variant,protein stability index
1,TQDMIYAVGGRDDTTELSSAERYN,4.58
2,DQDMIYAVGGRDDTTELSSAERYN,5.33
3,VQDMIYAVGGRDDTTELSSAERYN,4.5
4,KQDMIYAVGGRDDTTELSSAERYN,4.39
5,LQDMIYAVGGRDDTTELSSAERYN,4.26
6,QQDMIYAVGGRDDTTELSSAERYN,4.75
7,FQDMIYAVGGRDDTTELSSAERYN,1.89
8,YQDMNYAVGGRDDTTELSSAERYN,3.09
9,YQDMAYAVGGRDDTTELSSAERYN,2.28
10,YQDMTYAVGGRDDTTELSSAERYN,3.17
11,YQDMKYAVGGRDDTTELSSAERYN,3.39
12,YQDMVYAVGGRDDTTELSSAERYN,2.53
13,YQDMDYAVGGRDDTTELSSAERYN,3.99
14,YQDMLYAVGGRDDTTELSSAERYN,2.61
15,YQDMCYAVGGRDDTTELSSAERYN,2.52
16,YQDMGYAVGGRDDTTELSSAERYN,3.14
17,YQDMQYAVGGRDDTTELSSAERYN,4.11
18,YQDMWYAVGGRDDTTELSSAERYN,2.48
19,YQDMMYAVGGRDDTTELSSAERYN,2.77
20,YQDMSYAVGGRDDTTELSSAERYN,3.53
21,YQDMPYAVGGRDDTTELSSAERYN,2.72
22,YQDMYYAVGGRDDTTELSSAERYN,2.21
23,YQDMFYAVGGRDDTTELSSAERYN,1.79
24,YQDMEYAVGGRDDTTELSSAERYN,3.98

row,Variant,protein stability index
1,YQDMRYAVGGRDDTTELSSAERYN,2.71
2,YQDMHYAVGGRDDTTELSSAERYN,2.65
3,YQYMIYAVGGRDDTTELSSAERYN,1.77
4,YQVMIYAVGGRDDTTELSSAERYN,1.86
5,YQHMIYAVGGRDDTTELSSAERYN,2.15
6,YQGMIYAVGGRDDTTELSSAERYN,1.47
7,YQKMIYAVGGRDDTTELSSAERYN,2.79
8,YQNMIYAVGGRDDTTELSSAERYN,2.63
9,YQIMIYAVGGRDDTTELSSAERYN,2.26
10,YQTMIYAVGGRDDTTELSSAERYN,1.56
11,YQFMIYAVGGRDDTTELSSAERYN,1.88
12,YQSMIYAVGGRDDTTELSSAERYN,1.99
13,YQPMIYAVGGRDDTTELSSAERYN,3.4
14,YQEMIYAVGGRDDTTELSSAERYN,2.48
15,YQQMIYAVGGRDDTTELSSAERYN,3.08
16,YQAMIYAVGGRDDTTELSSAERYN,1.7
17,YQMMIYAVGGRDDTTELSSAERYN,1.81
18,YQRMIYAVGGRDDTTELSSAERYN,2.83
19,YQLMIYAVGGRDDTTELSSAERYN,1.81
20,YQCMIYAVGGRDDTTELSSAERYN,2.15
21,YQWMIYAVGGRDDTTELSSAERYN,2.03
22,YQDMIAAVGGRDDTTELSSAERYN,3.85
